This data set deals with the molecule itself. The data set is described as follows: crystal structure; apo-hIRE1 (no nucleotide), hanging-drop vapor diffusion, 18-20% PEG3350, 0.2 M sodium malonate, Bis-Trispropane pH 6.5, 18°C; 2 molecules in the asymmetric unit.

This note sets out measurements from publication PMC4536996, “Molecular mechanisms of human IRE1 activation through dimerization and ligand binding” (Oncotarget, 2015).

B1: cytoplasmic region of human IRE1 (residues 547-977) (domain or fragment, UniProt O75460 547-977, looked up)
chain: GSSPSLEQDDGDEETSVVIVGKISFCPKDVLGHGAEGTIVYRGMFDNRDVAVKRILPECFSFADREVQLLRESDEHPNVIRYFCTEKDRQFQYIAIELCAATLQEYVEQKDFAHLGLEPITLLQQTTSGLAHLHSLNIVHRDLKPHNILISMPNAHGKIKAMISDFGLCKKLAVGRHSFSRRSGVPGTEGWIAPEMLSEDCKENPTYTVDIFSAGCVFYYVISEGSHPFGKSLQRQANILLGACSLDCLHPEKHEDVIARELIEKMIAMDPQKRPSAKHVLKHPFFWSLEKQLQFFQDVSDRIEKESLDGPIVKQLERGGRAVVKMDWRENITVPLQTDLRKFRTYKGGSVRDLLRAMRNKKHHYRELPAEVRETLGSLPDDFVCYFTSRFPHLLAHTYRAMELCSHERLFQPYYFHEPPEPQPPVTPDAL
For orientation: stoichiometry N means a count of units in the complex or per binding partner. Take B1: the “stoichiometry N” value was 2.
